Here are results for seven molecules from US11504432B2, “Delivery system for targeted delivery of a therapeutically active payload” (TECHNISCHE UNIVERSITÄT DRESDEN, priority 2016, dated 2022).

The subject of experiment [1] is 293T-Blue^TLR3/PSCA reporter cells. Nature of the experiment: NFkappaB activation, SEAP reporter, PSCA-positive cells. The experiment is classed as cell-based. Here is the method:
The target delivery of TLR3 agonist Riboxxol® to the endosomal compartment of PSCA-positive cells and the resulting NFkappaB activation and induction of apoptosis by the use of the BIC delivery system was investigated using 293T-Blue^TLR3/PSCA reporter cells. 50.000 293T-Blue^TLR3/PSCA cells in 200 μl HEKBlue detection medium were plated in 96 well plates and treated with increasing concentrations of BICs containing RIBOXXOL® and scFv(h-AM1)-BAP or were treated with BICs containing Riboxxol® and scFv(MR1.1)-BAP, which should not bind to the PSCA-positive target cells. The induced secretion of the reporter SEAP, or its enzymatic activity in HEK Blue medium was measured at 655 nm in an ELISA reader after 24 h. […] […] A plateau of activation is reached at a concentration of the anti-PSCA immunoconjugate at 25 nM. […] Apoptosis levels of treated cells were normalized to untreated 293T-Blue^TLR3/PSCA cells by subtracting basal apoptosis levels from induced apoptosis-levels in the treatment groups.

The test system of experiment [2] is 293T^EGFRvIII/c-Luc cells. Description: Luciferase knockdown by scFv-P-BAP guided polyplexes. The experiment is classed as cell-based. The note with it: inhibitor added 4 h prior transfection. How it is done: As positive RNAi control, cells were transfected with siLuc3 using the transfection reagent Interferin®. For investigating the route of internalization, endocytose inhibitors 0.6 μg/ml filipin III and 6 μg/ml chlorpromazine (both Sigma Aldrich) were added 4 h prior transfection of cells.

The subject of experiment [3] is 293T^EGFRvIII cells. Description: EGFRvIII receptor internalization, FACS. The experiment is classed as cell-based. The note with it: crosslinking with scFv plus anti-myc-antibodies, 2 h to 48 h. Here is the method:
(§1) For studies of EGFRvIII and PSCA internalization, 293T^EGFRvIII and 293T^PSCA cells, respectively, were carefully detached with Trypsin/EDTA solution (Sigma/Aldrich). After repeated washing in 1 mg/ml BSA/PBS, 2×10^5 cells were fed with fresh medium and plated in 96 round bottom wells. Crosslinking of receptors was accomplished by incubation with 1 μg parental scFv specific for the cognate receptor for 1 h at 4° C. followed by extensive washing with PBS and treatment with 0.5 μg of biotin-labelled anti-myc antibody (Miltenyi Biotech) for 10 min at 4° C., followed by extensive washing with PBS and feeding with fresh medium. To achieve a monovalent binding of receptors, the 293T^EGFRvIII and 293T^PSCA cells were incubated only with scFv(MR1.1) and scFv(AM1), respectively, for 1 h at 4° C., followed by extensive washing with PBS and feeding with fresh medium. EGFRvIII surface expression was monitored after incubation at 37° C. in a humidified CO2 incubator after 2 h, 4 h, 8 h, 24 h, and 48 h utilizing an anti-biotin-PE antibody (Miltenyi Biotech) for the crosslinked receptors and incubation of biotinylated anti-myc antibody for 10 min at 4° C. followed by anti-biotin-PE antibody staining for 10 min at 4° C., for cells with monovalent binding of receptors. All obtained data were analyzed by FlowJo software version 7.6.5 (TreeStar Inc., Ashland, USA).

In experiment [4] the target is wild type EGFR (Homo sapiens, UniProt P00533). The note with it: cited from earlier work.
The subject of experiment [5] is tumors. The following applies: in vivo; cited from earlier work.
In experiment [6] the target is EGFRvIII neo-epitope (Homo sapiens, UniProt P00533, DELINS30-297G). The note with it: cited from earlier work.
Experiment [7] addresses T1, EGFRvIII (Homo sapiens, UniProt P00533, DELINS30-297G).
T1 construct: expressed in transfected cells; host or cells: 293T cells with ectopic EGFRvIII (293T^EGFRvIII)
Nature of the experiment: Flow cytometry binding of scFvs to 293T^EGFRvIII cells. The following applies: 1 μg scFv. How it is done: To investigate scFv(MR1.1)-P-BAP binding to EGFRvIII-293T target cells with ectopic expression of the cognate surface receptor, 2×10^5 cells were incubated with 1 μg of recombinant scFv and scFv-P-BAPs, respectively. The bound antibodies were detected either via their myc-epitope using anti-myc/FITC antibody or via their biotin residue using anti-biotin/PE antibody (1:10; Miltenyi Biotec, Bergisch Gladbach, Germany). Cells stained only with secondary antibody were included as a control. […] At least 10,000 stained cells were measured by flow cytometry (MACSQuant, Miltenyi Biotec, Bergisch Gladbach, Germany) and analyzed by FlowJo software version 7.6.5 (TreeStar Inc., Ashland, USA).
A general note: A flow cytometer gives signals particle by particle.

The target of experiment [8] is avidin (Gallus gallus, UniProt P02701). Nature of the experiment: Conjugation of biotinylated scFvs to avidin, Western blot. The experiment is classed as binding. The following applies: molar ratios from 1:1 to 4:1. Here is the method:
Conjugation of recombinant biotinylated single chain antibodies was investigated in Western blot experiments. For this 10.7 pmol of recombinant scFv-P-BAP and scFv-BAP was incubated for 30 min at RT with […] as depicted in FIG. 11c for scFv(MR1.1)-P-BAP and FIG. 12 for scFv(MR1.1)-BAP and scFv(h-AM1)-BAP. The avidin/scFv-BAP complexes were subjected to non-reducing SDS-PAGE. After protein transfer onto a Westran PVDF membrane (Whatman GmbH, Dassel, Germany), proteins were detected by a monoclonal murine c-myc-specific antibody (1:5,000, Invitrogen, Carlsbad, USA) and a HRP-labeled rabbit anti-mouse secondary antibody (1:1,000; Dako, Glostrup, Denmark), and after stripping of the membranes by a HRP-conjugated biotin-specific antibody (1:8,000; Sigma-Aldrich, St. Louis, USA). Membranes were visualized and documented using the Luminata Classico Western HRP substrate (Merck Millipore, Darmstadt, Germany) and the imaging system LAS3000 (FujiFilm Europe, Düsseldorf, Germany).
On the technique in general: Immunoblotting shows a protein as a band on a membrane.

Experiment [9] has as its target T2, PSCA (Homo sapiens, UniProt O43653).
T2 construct: expressed in transfected cells; host or cells: 293T^PSCA cells
T2 sequence (O43653 12-83): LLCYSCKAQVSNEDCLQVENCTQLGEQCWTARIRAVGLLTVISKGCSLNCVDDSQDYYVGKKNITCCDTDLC
Description: Binding affinity (KD) by flow cytometry on 293T^PSCA cells. The note with it: FIG. 9. Here is the method: For determination of binding affinity, murine scFv(AM1) and the humanized scFv(h-AM1) were incubated in descending concentrations with 293T^PSCA cells. After detection with a secondary anti-myc-PE-antibody the MFIs were determined using a MACSQuant Cytometer (Miltenyi Biotech) and FlowJo software and the Kd values were calculated with the PRISM software program. FIG. 9 depicts the graphs for the KD value calculations.

Experiment [10] relates to 293T^PSCA cells. Description: PSCA receptor internalization, FACS. The experiment is classed as cell-based. The note with it: crosslinking with scFv plus anti-myc-antibodies, 2 h to 48 h. Here is the method:
as §1

Sequence of avidin (P02701 25-152): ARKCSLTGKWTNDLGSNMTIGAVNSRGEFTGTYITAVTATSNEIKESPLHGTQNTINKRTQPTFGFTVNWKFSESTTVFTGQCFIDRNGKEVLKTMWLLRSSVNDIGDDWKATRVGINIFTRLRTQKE

For `CN(C)CCCN1c2ccccc2Sc2ccc(Cl)cc21` [chlorpromazine, reference compound], the “inhibition of chlatrin-mediated endocytosis of BICs” value in experiment [1] (31 μg/ml of chlorpromazine) is given as “effectively inhibited”.
Take `CCCCC[C@@H](O)[C@H]1C(=O)O[C@H](C)[C@@H](O)/C=C/C=C/C=C/C=C/C=C(\C)[C@@H](O)C[C@H](O)C[C@H](O)C[C@H](O)C[C@H](O)C[C@H](O)C[C@@H]1O` [filipin III, reference compound]: in [2], the “effect of endocytosis inhibitor on delivery of EGFRvIII-specific polyplexes” value is on record as “inhibited”. In experiment [1] (0.3 μg/ml filipin III), the “effect on induction of the reporter SEAP by BICs” value is given as “slightly weakened induction”.

B1: scFv(MR1.1): EGFRvIII-specific single chain fragment variable from the literature [30, 31] (protein)
scFv: QVKLQQSGGGLVKPGASLKLSCVTSGFTFRKFGMSWVRQTSDKRLEWVASISTGGYNTYYSDNVKGRFTISRENAKNTLYLQMSSLKSEDTALYYCTRGYSPYSYAMDYWGQGTTVTVSSSGGGSGGGGSGGGGSDIELTQSPASLSVATGEKATIRCMTSTDIDDDMNWYQQKPGEPPKFLISEGNTLRPGVPSRFSSSGTGTDFVFTIENTLSEDVGDYYCLQSWNVPLTFGDGTKLEIT
modifications: left off: small tags and cut ends
For B1, the EGFRvIII internalization result in experiment [3] is reported as “time-dependent”. In experiment [4], the “cross-reaction with wild type EGFR” value is given as “does not cross-react”. Further, the retention in tumors entry in experiment [5] is listed as “excellent retention”. In experiment [6], the “affinity to EGFRvIII neo-epitope” value is reported as “high affinity”.

B2: scFv(MR1.1)-P-BAP: scFv(MR1.1) fused to PSTCD biotin acceptor peptide, SEQ ID NO: 3 (protein)
scFv: METDTLLLWVLLLWVPGSTGDAAQPARRARRTKLGTELGSHMQVKLQQSGGGLVKPGASLKLSCVTSGFTFRKFGMSWVRQTSDKRLEWVASISTGGYNTYYSDNVKGRFTISRENAKNTLYLQMSSLKSEDTALYYCTRGYSPYSYAMDYWGQGTTVTVSSSGGGSGGGGSGGGGSDIELTQSPASLSVATGEKATIRCMTSTDIDDDMNWYQQKPGEPPKFLISEGNTLRPGVPSRFSSSGTGTDFVFTIENTLSEDVGDYYCLQSWNVPLTFGDGTKLEITKLSSKLKVTVNGTAYDVDVDVDKSHENPMGTILFGGGTGGAPAPAAGGAGAGKAGEGEIPAPLAGTVSKILVKEGDTVKAGQTVLVLEAMKMETEINAPTDGKVEKVLVKERDAVQGGQGLIKIGDLELIEGSSGPEQKLISEEDLNSAVDHHHHHH
modifications: Single chain antibody fragment
Turning to B2, the “binding to EGFRvIII-positive 293T^EGFRvIII cells” value (from here on “binding”) in experiment [7] is “bind”. The conjugation to avidin result in [8] was “efficiently conjugated”.

B3: scFv(AM1): murine 7F5-derived single chain antibody fragment specific for prostate stem cell antigen (PSCA) (protein, listed as Mus musculus)
scFv: METDTLLLWVLLLWVPGSTGDAAQPARRARRTKLGTELGSQVKLQESGGGLVQPGGSLKLSCVASGFTFSSYTMSWVRRTPEKRLEWVAYIHNGGGHTYYPDTIKGRFTISRDNAKNTLFLEMSSLKSEDTAMYYCTRRMYYGNSHWYFDVWGAGTSVTVSSAKTTPPSVYGGGGSGGGGSGGGGSTNSDIVMTQSPSSLSASLGDRVTINCRTSQDISNYLNWYQLTPDGTVKLLIYYTLKLNSGVPSRFSGSGSGTDYSLTINNLEKEDFATYFCQQSKTLPWTFGGGTKLEIKRADAAPTVSGPKLSSKLKVTVNGTAYDVDVDVDKSHENPMGTILFGGGTGGAPAPAAGGAGAGKAGEGEIPAPLAGTVSKILVKEGDTVKAGQTVLVLEAMKMETEINAPTDGKVEKVLVKERDAVQGGQGLIKIGDLELIEGSSGPEQKLISEEDLNSAVDHHHHHH
Take B3: in [7], the “binding” value is reported as “did not recognize”.

B4: scFv(AM1)-P-BAP: scFv(AM1) fused to PSTCD biotin acceptor peptide, SEQ ID NO: 1 (protein, listed as Mus musculus)
scFv: B3 scFv
In the case of B4, in experiment [7], the “binding” value is given as “did not recognize”.

B5: scFv(h-AM1): humanized PSCA-specific scFv with c-Myc-Tag, Bio-Tag BAP and His6, SEQ ID NO: 2 (protein)
scFv: METDTLLLWVLLLWVPGSTGDAAQPARRARRTKLGTELGSEVQLLESGGGLVQPGGSLRLSCVASGFTFSSYTMSWVRQAPGKGLEWVSYIHNGGGHTYYADSVKGRFTISRDNSKNTLYLQMNSLRAEDTAVYYCTRRMYYGNSHWYFDVWGAGTRVTITSAKTTPPSVYGGGGSGGGGSGGGGSTNSDIQMTQSPSSLSASVGDRVTITCRTSQSISNYLNWYQQKPGKAPKLLIYYTLKLNSGVPSRFSGSGSGTDFTLTISSLQPEDFATYYCQQSKTLPWTFGGGTKLEIKRADAAPTVSGPEQKLISEEDLNSAVDMSGLNDIFEAQKIEWHEGAPSSHHHHHH
modifications: Humanized antibody
Regarding B5, the “affinity to PSCA compared to parental murine scFv” value in experiment [9] was “improved affinity”. Also, the PSCA internalization result in experiment [10] was “time-dependent”.
